This is an account of results in paper PMC12718150.

For test [1], the target named is 2-hydroxy-hept-2,4-diene-1,7-dioate (HHDD) isomerase (HHDDI) from Acinetobacter baumannii TH (Acinetobacter baumannii TH). Put plainly: SEC; single purified enzyme (0.5-1.0 mg/ml) on ENrich SEC650 (10 x 300 mm), buffer G (50 mM HEPES, pH 7.0, 150 mM NaCl), 0.5 ml/min, 4 °C; native MW from a calibration curve of protein standards against subunit MW.
Test [2] shares this target.
Test [3] has the same target. Put plainly: SEC; ENrich SEC650 gel filtration column, FPLC; OPETD and HHDDI mixed at 1:1 molar ratio (0.5 and 1.0 mg/ml), incubated on ice in buffer G (50 mM HEPES, pH 7.0, 150 mM NaCl); 0.5 ml/min, 4 °C; native MW from a calibration curve.

“2-hydroxy-hept-2,4-diene-1,7-dioate (HHDD) isomerase (HHDDI) from Acinetobacter baumannii TH (enzyme)”: in test [1], the stoichiometry N amounted to 2.
Turning to “5-oxo-pent-3-ene-1,2,5-tricarboxylate (OPET) decarboxylase (OPETD) from Acinetobacter baumannii TH (enzyme)”, in test [2], the tri-acid decarboxylation activity of the OPETD-HHDDI complex against HHDDI alone (synthesized tri-acid substrate, LC-MS/MS of the di-acid) came out at 12 fold and the tri-acid decarboxylation activity of the OPETD-HHDDI complex against OPETD alone (synthesized tri-acid substrate, LC-MS/MS of the di-acid) amounted to 60 fold. For the same substance, the stoichiometry N (OPETD per HHDDI) in test [3] amounted to 1.
